Experimental findings from patent publication US20230212267A1 are described below.

In the assay the target is SARS-CoV-2 Spike protein on pseudovirus (wild type) (SARS-CoV-2) (UniProt P0DTC2). Kind of assay: cell-based or functional assay.

As to “ACE2-Ig (positive control of the pseudovirus neutralization assay) (Fc fusion)”, the IC50, pseudovirus neutralization amounted to 0.9 µg/mL.
